In the NTF2 design screens of Basanta et al. (2020):

Assay: protease stability score; higher = more stable; yeast display proteolysis, trypsin and chymotrypsin;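 further: relative to predicted unfolded state with 0 unfolded-like and 1 meaning tenfold more protease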

| Sequence | protease stability score |
| --- | --- |
| SEEEEVAWEAVEILSTFILTGDFESLNKLFDPHVRVRIGDKELHGRETTNKIFRKEREEHGIEIRHIHVHDVHVINGRIHADVEHKIRINGKEDSRRVEWIIEKYNGRWIVREIRVH | 1.35 |
| DEEEEDIRRAVTRFIEVILTGDEHSLERLMDPHVKIDIGDKHLHGREAKDRLRDEMRRKFKNLRIHMRDWHLEIYDGVAHSTFDFELEINGKRTHLELRVDVRKVDGRWLIDSYEIKIR | 1.15 |
| DHEEELAKSMLEIWREVVWTGDEDSLQKLLDPDARYHLVVDGKRVERIGMEHIRKELHRLFREWRIEDMHIHEIRVVDGVAHTRTRLVVNIDGRIVDTETVINVVSFDGRVRSVTVDIR | 1.25 |
| DDKQRAYEELTRKTLEVIETGDERMIEEMLDPNVRIHIDGKHVHGMEEATRIFLHEFHHLGFKHFEFKSVIEVDEKLIVTGHMRVDGREVELRIVIWKVNGRWTTESIQIHRL | 1.4 |
| DEDTHDTKKAVEEFIHTVRTGDEHSLRRQLDPNARVEVGDKEQHGRLFIEWFIRMLGIDNVDVRVHDHHVYDGRVEVDLLLHVDGRDFRVNIVWDKINGQWRNRMVIFR | 1.17 |
| DHREEHDHEISELMREALLTGDEQLISHLADPNVRFEVFVGDKVIRWVGRESMMEAFERWVREIRIEDLKVKHVDIFNGRVDVVTTLHVEFDGRKHDLETRLIFEVVDGKVKHLQVHHH | 1.36 |
| DEEREDIEKVTHILSEIWETGDEHRLHRMLDPNTKVVIDGVEIHGRELIIRFRKELRHKLGLDRIEVDIDHIEVQGDKAISDTSIDYNGREFKVINTVHKYNGRWLVHRIIHE | 0.815 |
| SESEEASREAIHLMIESWRTGNEHILDRLMDPNVRNRIDGRDLIGRENFLEVLRHLEEKMGIDHIEFDTERVRWVGDKAESDTRFETVYNGKNVEISTKVHWEKVNGRWHIREIRFH | 1.17 |
| HELDELTERTVKLFRDSSYTGDEDTLEDLADPNYRFVIDGKILMGREWVTRSLREWRVEDFRIHSVDLQGDKAHVDITVKGKFNGRFRTTRQEMVMMKVDGVWYFHSLTIR | 0.521 |
| DEDKKITDRAFEIFIHNLYTGNEEDLHELADPNVRHIYGDWNVHGMELMTHVLWEIRMKRLNEHDLEIHIINGRAIIDLDGELDGEVNGRRHHRRIIIHVFALKIDGRWHLESMEVKTK | 1.35 |
| SELEHWAERLTRILIHSLYTGDEESLLKLADPRVRNDVNGVHVVGMEWFLKVWNKYRDELRIHHIEVRDIKIINGVAHSTVREDGEINGKKLDVETHVELDTVNGRLRIVHIRIV | 1.58 |
| SDYERLFTIAVQLVIDVIQTGNFRELERLLDPNVRVDINGQEFVGREELVHWMHKVIRRADHLEITLRDVELQGDKLVLDMELVERYDGKEYRTRIRVFAHKINGQWYIRTFEVR | 1.51 |
| SEYEHEAREVMHRLIHATETGDEEQILRMIDPHVRIDINGVELIGWRHLEEYLRRIDVVYIRIDARRVDVQGDKIRVDTEMDVEVDYDGRKFRHKEKTIIFMHKVDGRWLITSFHVL | 2.7 |
| DEEERLTRDWAKQWIHFLETGDEDRLMELADPHVRIDVNGQEFHGREQFNKFMSHLTTHARFETKEVQVIGNKTHIDTRMSIDGKTTETLVILIIWNGRLKELRIHHH | 1.47 |
| TEDDKDWEEIYKMLEHASKTGDERIFNKFIDPNTMSVVNGVDLIGMERWRNHWEHARFRHIEFRHVEIIDGRLDIQGHLRGEYNGREIRTDMRLIILKIDGRWIHKSFEFH | 0.944 |
| DHQEHIIKVSLEILLESARTGDERSLERLFDPNVRIINENEERHGREALEILLKRIDHIHHLNIRDTRIQGDFLITEVHVRINVNGVHIQNDMVLYAWKVNGRWHIRSIEFK | 1.39 |
| DEEEEIARRIFKIFVHNVLTGDEDSLRKMIDPNTRLHVDGQELHGREQALTFLHEMRIDHMELRELRVIDGRIISHIRVDGEINGRRRDIQTEIILYKVDGRWVIRQMRFQ | 2.39 |
| DHQEKRTTEANEMFREAIETGDEKTLTRLVDPNVKIIVGDKRYHGREWFLHLMLHEILHLRVRIHTEDYRVVDGRIEFITHLEIEIGDKTVRRETFVFVDKINGRWLYQSFQDG | 0.773 |
| SEREHEVQESLEILIKLWHTGDFRAISEYADPNVRSDVNGKEFHGRENVEEALERSMKDLGVKVVHSEHIEHLEIYGNKVIVHVRIDGEVDGKRFHSHFIMYTTKVDGQWRVHEIRVH | 1.03 |
| DEEEEERRRIAKELTHLWHTGDEDRLIEMADPNDRILIGDFDIHGWESAMRFLRYFRREFGVKHEEIKDIEIQGEKTHIHSHLKVGDKRHHVLVILVVINGRHKRIEIRIH | 0.755 |
| NHDEEHLKRLLEDEREMLETGNEDEIRRLLDPHVRLDIDGRNIHGREEVAKWMVKLALRVDVFIIRVKRFHIQGDYIYFDTHIEEIVNGQHISFDVMIIIWKYNGRWLIHSIIVR | 1.58 |
| SEEEKDIKNAFRLLVKIIRTGDWEDHHKQMDPDVLIIVGDKEHHGWEEASRFMKEHLERVDHEDLKLRRVHIQGEKMELDGELFVNVDGRLIRMRVIFFLNKVNGRWVIHSLEIR | 2.28 |
| SELDELANFANELFWELHKTGDEEIFNHYADPHMRYEIDGRDIHGMEVFTKHLRRIKNLTLHSIHVHDEKSQGEKFIFDGNVVGRVNGKEFDTRVRLELTVINGRVHSIILRRH | 1.41 |
| DEDEEFAKELLERTAESIVTGDEDMWREYFDPHARIEFNGKDYHGWHEFERMLRELRVHRVEVEVKRVHLYDGRMDVKGELHIKGTFDGRRVEESTDVDYFIIKIDGQWYIRHETII | 0.761 |
| SELDKVAEEHMEHFFHLYRTGDEDMTHELLDPHVRVSINGVETVGRELATKEVIDWVRKVKNVKTHIHHIEKINGKVIVDTRIHINGVDFRLVIWADKVNGRWHIREMEIR | 1.36 |

| Sequence | protease stability score |
| --- | --- |
| SDSDHDLEHLLELLMRAYETGNEEEIRRLVDPNARWDINGVELHGWKVMHKFLREMRPTRIRIIIDDSETIGDKMFVDGTIRLDVHIGDKLIHTERRSRLVHRKVDGKWTQTSVIID | 0.68 |
| DHKDELAHRLVEHILKLLLTGDEEHWYELLDPNVRIHINGRNSVGREEALKVIQFFWELLGVKHIELKEVRFQGDKVHSDTRLDINGVKSRVRIEVIIINGRIDEVRIDIR | 2.25 |
| DEREELVTRFWKFFVEASRTGDWRKLEDRADPHVRLHIDGVDLHGREEFAEEHRRHLKKFKNVKIHYEIHDMDIQGEKVHVDYRIRLDIGDKRTENIIRMDIVKIDGKWLIQEMHVD | 0.89 |
| DERKKATKETMRLEEEARNTGDEHELTKLVDPHVRLVIDGVNFIGWEVFLKRFNDLGADHVELRIDEIELIGDKVIVHGTLRIRVGDKETQEKVELYWLKINGRWVLEQVNHK | 1.71 |
| DHEEEHALRIMQLLLWLDFTGDEETIHHLMDPHVRSVWIVGDKTITRHGRENVLKLFRDLGFKHVKDFRIRDVSAFDGRVDLKGRIDGQYGDKRETWDMDVELNVVDGRLKFFIIRFK | 1.69 |
| SEEEHLAREMTELHKQAELTGDEHFLNELMDPHVRIDINGVPAIGWEESNEVLKRIWEEMRIDDIRPTHVELQGNKIHVHVQSHITIDGQRRIFHERIVIVVFNGRMREVKFDIH | 1.19 |
| DEEEELIKHHLELHLEAVKTGDEEHLHRNMDPNVRLHVNGQDRHGREDVSTLLREIRLKDFKIHDVDIQGNKMRFDGFILGEINGREHNVHTTIYAEKVDGRWLIRHFEIR | 1.04 |
| DHIEEDIEEAERIMKEVNHTGDWETLERNFDPNVRLDIDGRTFHGMETYTKWFREIRIEDSRVKSIELQGDKIRYDTILHGIINGKRDTVKTHLIAVKVNGRWFIKVYSLH | 1.05 |
| DEDREWIERFNRILIESLTTGDEHTLKELIDPNARLVINGRDIHGREEFVRLLSEMGVKHFHVHDVKVVGNKAVTRGILYFNGREYDVDVFTRKIDGRWLYESLEVK | 2.02 |
| DEEERAAEEFLRWISKNSRTGDEESFNHLADPNTRVIIGDKVLHGREEWKKFLEEIRIEEIELKDFRIFDGKIRLDVIHTGKVNGRRHEVQVQMIVIKVNGRWIMHSVKFD | 1.09 |
| SELEDATEFAIKVLLEVLRTGDWLEFEKMVDPNVRSSINGVELHGRRRLSHEILREWMELGIKHLDVHLKHKELQGDKLILIVELRLDVNGREIRRETELILLKVDGRWLLTEVRVK | 1.58 |
| DETEKHILKLAEMLVRDWITGNEENIMELLDPHAKIDIHIDGRYLEFHGRELITRELIRHYEEIRIHYHFRESESVGEKASINMDVEVHIGDKIVRSHTEVILDIVNGRVRNIHIRWK | 2.23 |
| DEEERLLDHVIKLMLQMHLTGNEEIFLNLADPHAKFYFNGVDLHGMELVSKWESEWLHHIRIRRRHIEDSRIVGDKAHIHVRVDEEIGDKKLDTHYRVDLVVINGRWHSVRIDMR | 1.25 |
| SEDTRIAEELWRIMMDADRTGDEDRSKEMIDPNTQFIFNGRDVIGREVWAELFLRIDHIHLRDVEIHDSEVFNGKIHIDGHVDQEIRIGDKTLVEKVKVELIVLKINGKWLLKEVRFH | 1.35 |
| SEDEREFLDVLKWLIEAVATGDERIWKELVDPHVRLEVGDKHRHGRETFEKTMRHLRVKEVRVKLHDFDFIGEKMTADVKLEIHLIVGDKERDIRLDIIVHSRKIDGKWHVESIHIR | 1.51 |
| SEDERYAEIADRIVRHSQETGDETDHMRMMDPDVRIEIGDKRYHGRELEHKLLKIWGVTRIEYDVRSIEVQGEKVRIDGVINFNGVELKIILYVLKFNGKWSYTKVEIQ | 1.84 |
| DEDKEILKRAFEIYIQTVLTGDEDLFHEMADPHTRLETENETFIGREEVRRWMSEWRVDHIILKDFTAVNGRLVLRGEMDGTINGKRTHVTVTIIIHKVDGRWLLKSMSVE | 1.36 |
| SEEDEHSERALTLLNHLIMTGDFHDWERFFDPHVRFVVNGVEFHGREDVVRFLLELLERFKNVKIEMESWEIQGDKITSHYHEHVNGVRIERTVIMRKFNGRWFIQEVRFN | 0.281 |
| SERHKDMKRLIDEWRKSYETGDEDQLRRLLDPTTRVDFNGVEYHGRHEAVEIMSQIRVEHIDIRELHVQGNKAEVRVRMHGHFDGQEEEVEFIIYMKKVNGRWVVHQEEHR | 1.16 |
| DEEEEDFRMAEHFIRKSLKTGDERLREELMDPHVRIHQGDKHFHGREDASELHRQFDHIEHVHLKDFHFYNGRVIMHMHVLGHWDGRRTRFDTHVTATKIDGRWIVKEWTII | 0.552 |
| DEEKERMFEHWEDVLRDWYTGNEDNLRHLFDPHARTDVNGVELHGMDLISEVLRRHLEEIRIKSMHLRELRSVDGRIHEHGELRGRVNGVDVRREVRVHLTVVNGRMKEMRFENI | 0.394 |
| SEDEEDVEQWVRIWFDLLLTGDEDSLRKLIDPHARVEVNGVIQIGREEVARFLSQMRVHDSTLRDIKIYDGRVEIDNEEDVEFNGQRKRVKVILISNKFDGRWTNEHEKYE | 0.449 |
| DEDEHDSEIAVKLFVRHMETGDEDVLREYADPRTKILVNGRETHGWETYVKHMQETINKLGVKHTHFELKDVEVQGEKIIAHVRIELNFENHHTTINMILIIHKVDGRWHLKKMKIK | 0.871 |
| RKEEEDLHKLLEHLSENYWTGNEEMFNHLADPHTRFEIRIGEFTIEDHGRERIKELVEWLLRFLGANHSHLTSIRVVGDKFHVNSLIHVDGREHTLHIIFVFINGRLTHYSMEVR | 1.35 |
| SELKNWARIIAERVTDELNTGNEHRLRELFDPNVKIRIDGRDFHGMDTLRRFFEELRITHTHWEHKDMHLIGDKALLHGTLKINILQGDKTHETTFDVRIFVIKVNGRWSYEHMEID | 1.22 |
